Laboratory results: patent US20170173114A1, “METHODS AND COMPOSITIONS FOR INDUCTION OF UCP1 EXPRESSION” (Joslin Diabetes Center, Inc., priority 2014, published 2017)
“Also recorded” adds a separate entry of the source.

Experiments:
Format in all cases: cell-based, murine
[1] = system: WT-1 brown preadipocytes; test: 2-deoxy-[3H]glucose uptake in WT-1 brown preadipocytes; conditions: FGF6 overexpressing vs control and EGF
Protocol: The following glucose uptake assay was used to determine whether FGF6 could impact cellular glucose uptake. Specifically, glucose uptake was monitored in WT-1 brown preadipocytes and 3T3-F442A white preadipocytes in the presence or absence of FGF6. After serum starvation in DMEM/H medium containing 1% of BSA for 2-3 h, cells were washed with HEPES buffer and then incubated with or without 100 nM insulin for 30 min in DMEM/H medium containing 1% of BSA. Glucose transport was determined by the addition of 2-deoxy-[3H]glucose (0.1 mM, 0.5 μCi/mL; PerkinElmer Life and Analytical Science, Waltham, Mass.). After 5 minutes of incubation, the reaction was stopped by ice-cold PBS and cells were washed twice with ice-cold PBS. Cells were then lysed in 0.1% SDS, and glucose uptake was assessed in 4 mL of scintillant using Beckman LS6500 scintillation counter (Beckman Coulter, Indianapolis Ind.). Nonspecific 2-deoxy-[3H]glucose uptake was measured in the presence of cytochalasin B (20 μM) and was subtracted from the total uptake to get specific glucose uptake. Results were expressed as the mean±s.e.m. of the indicated number of experiments. The protein content was determined by the Bradford method.
The role of PGs in regulating mitochondrial function and cellular glucose uptake was also assessed. […]

[2] = system: UCP1; test: UCP1 mRNA expression (Q-RT-PCR) in WT-1 brown preadipocytes
Protocol: Total RNA was isolated with QIAzol lysis reagent (Qiagen, Valencia, Calif.) and purified by RNeasy Mini columns (Qiagen) following the manufacture's instructions. cDNA was prepared from total RNA using the Advantage RT-PCR kit (BD Biosciences, Palo Alto, Calif.) according to manufacturer's instructions. Diluted cDNA was used in a PCR reaction with SYBR Green Master Mix (Applied Biosystems, Foster City, Calif.) and primers specifically designed for detection of the gene of interest. PCR reactions were run in duplicate for each sample and quantitated in the ABI Sequence Detection System (Applied Biosystems). Data were expressed as arbitrary units after normalization to levels of expression of internal controls for each sample. Sequences of primers for specific genes are each obtained from the published literature or designed using publically available gene sequence databases. Unless otherwise indicated, gene expression data described in the examples below was obtained using QPCR.
The effect of FGF6 on differentiation of WT-1 murine brown preadipocytes was also examined. WT-1 cells can be induced to undergo brown adipocyte differentiation, characterized by lipid accumulation and expression of adipogenic and brown fat markers, as described above (Klein et al. (1999) J Biol Chem 274:34795; Tseng et al. (2005) Nat Cell Biol 7:601). WT-1 cells were treated with FGF6 in growth media (DMEM+10% FBS), a vehicle control (“control” or “C” referred to in FIGS. 3A-D), or induction media (“induction” or “I” referred to in FIGS. 3A-D) as described above for seven days. Following the treatment, cells were examined for the color of the culture media in combination with oil Red O staining, expression of adipogenic markers, expression of brown fat markers, immunofluorescent staining of cells with UCP1 and DPAI, and Western blot analysis to determine the presence of UCP1 and β-tubulin. The results are described in FIGS. 3A to 3D.
UCP1 mRNA expression in brown adipocyte cells was determined at FGF6 concentrations ranging from 0 to 300 ng/ml in the absence of induction cocktail.
In order to determine the length of time necessary to induce UCP1 expression upon exposure to of cells to FGF6, an experiment was performed whereby FGF6 was administered to brown preadipocytes at a concentration of 200 ng/ml and UCP1 expression was determined. FGF21 and a control were also used in the time course experiment. FGF21, a member of the endocrine FGF ligands that has been implicated in the browning of white fat (Fisher F. M. et al., Genes Dev. 26:271-281, 2012). […] FGF6 could acutely induce a significant increase of UCP1 expression as early as 4 hours after a 200 ng/ml dose, as described in FIG. 4B. At 24 hours, the fold-induction of UCP1 mRNA by FGF6 reached 700-fold higher than the untreated cells, as described in FIG. 4B.
To assess FGF6's role in the regulation of mitochondrial activity, FGF6 was stably expressed in WT-1 brown preadipocytes and 3T3-F442A white preadipocytes. Stable cells were generated by viral infection followed by drug selection.
FGF2, FGF6 and FGF9 were used at a dosage of 50 ng/mL, 100 ng/mL, 200 ng/mL or 300 ng/mL. FGF21 was used at the dosage of 50 ng/ml and 500 ng/mL. The concentration of BMP7 was 3.3 nM. RNA was isolated and UCP1 and PPARγ expression levels were evaluated by quantitative reverse transcription polymerase chain reaction (Q-RT-PCR) analysis after 24 hours (i.e., 1 day) (FIG. 14A), 2 days (FIG. 14B), 5 days (FIG. 14C) and 7 days (FIG. 14D) of treatment. All experiments were performed triplicate and the data are presented as mean+/−SEM.
FGF2, FGF6 and FGF9 were used at a dosage of 200 ng/mL. FGF21 was used at a dosage of 500 ng/mL. The concentration of BMP7 was 3.3 nM. mRNA was isolated and UCP1 and PPARγ expression levels were evaluated by quantitative reverse transcription polymerase chain reaction (Q-RT-PCR) analysis after 24 hours (i.e., 1 day), 2 days, 5 days and 7 days of treatment (FIG. 15). […]

[3] = system: WT-1 brown preadipocytes; test: Cell proliferation (MTT assay) in WT-1 brown preadipocytes; conditions: 200 ng/ml; 24 and 72 hours
Protocol: FIGS. 4A-4C graphically depict FGF6 induction of UCP1 expression in brown preadipocytes in a dose-dependent and time-regulated manner. Specifically, FIG. 4A depicts a dose-response curve of UCP1 expression by FGF6 at day 7. Numbers above curve indicate fold-increase relative to vehicle control. FIG. 4B depicts the fold-induction of UCP1 by vehicle control (“C”), FGF6 (“F6”) or FGF21 (“F21”) within 24 hours of treatment. FIG. 4C depicts a time-course of UCP1 expression induced by 200 ng/ml of FGF6, compared with cells differentiated in regular induction media. Numbers above curves indicate fold-induction relative to day 0. FIG. 4D depicts the effect of FGF6 on cell proliferation (measured by MTT assay) at 24 and 72 hours.
The effect of FGF6 on cell proliferation was also evaluated.

[4] = 0 to 300 ng/ml, absence of induction cocktail, day 7

B1: FGF6: fibroblast growth factor 6; recombinant human FGF from R&D Systems, or mouse FGF6 cDNA overexpressed by lentiviral vector (protein)
chain: KRQRRLYCNVGIGFHLQVLPDGRISGTHEENPYSLLEISTVERGVVSLFGVRSALFVAMNSKGRLYATPSFQEECKFRETLLPNNYNAYESDLYQGTYIALSKYGRVKRGSKVSPIMTVTHFLPRI
In the case of B1, the “glucose uptake level in WT-1 (brown) preadipocytes” value [1] is reported as “increased”, the “FGF6 concentration at which UCP1 gene expression plateaued” value [2, 4] is reported as “about 200 ng/ml” and the “UCP1 gene expression, dose response” value [2, 4] is reported as “dose-dependent manner”. For the same molecule, the “earliest time of significant increase of UCP1 expression” value ([2]; 200 ng/ml) was 4 h, the “fold-induction of UCP1 mRNA over untreated cells” value ([2]; 200 ng/ml, 24 hours) was 700 fold and the “UCP1 levels with prolonged exposure” value ([2]; 200 ng/ml, time course) was “continued to rise”. The UCP1 expression level ([2]; 50-300 ng/mL with insulin and T3, 1, 2, 5 and 7 days, dose-responsive) was “very high levels of UCP1”, the “UCP1 expression level, time course” value ([2]; FGF2, FGF6, FGF9 200 ng/mL, FGF21 500 ng/mL, with insulin and T3, 1, 2, 5, 7 days) was “very high levels of UCP1” and the “UCP1 mRNA expression” value ([2]; WT-1, 24 hours, vs vehicle) was “significantly induced”. For the same molecule, the “UCP1 mRNA expression” value ([2]; WT-1, growth media, seven days, vs control or induction media) was “significantly increased; also recorded: extremely high levels”, the “UCP1 expression over basal level” value ([2]; constitutive overexpression of FGF6 in WT-1) was “greatly increased; also recorded: marked increases” and the “effect on cell proliferation” value [3] was “virtually no effect”.
